Experimental findings from the DeepSol protein solubility set are described below.

The nature of this data set: soluble on expression in E. coli; label from the status in PepcDB or PDB records.
For “MSLFPAELMVVRKAQDGTIRPLMIAPDHVDIAEKVIEIYRSSAGRTRKEISKDIVTIEYGIKNPKIVRGLALIMDRMSTFRNRSRVDSKQLRGFLFQMGPAVSPEERQEKIALAAEHFSVSPQDIEEAIYGDMDSENVLDQCPSITPEHLNRRYNLEQLTTLMYRSKFIEVSGINNWYRFISLIKRQGLVFEAQGNPLMSVRIDGPNSVFNNMERYGSSMARVVERLTAFPGWKLHAEVEIKDRVYSVDLDSSISYYLPETDIEEEEAIPDPVVIGTRVFFPTRIINVHGQDVYVDIVYHMSPEAIKRRDEMIRSSGIKWITAVVGECKKFQGVLCFRNRVDWDAIIAKASEEYPATTDALREEIDRLYPNTEAILDLLDSRSIPLSHLEKIGYRIKWNGILPEIVRSTEGHHHHHH”, the “soluble on expression in E. coli” value was “soluble”.

Regarding “MSLFTCEDPAVWKAVHNKYWTVVEAKSAGKRKTSGKLLQLDKWFQEDLPAAITARPERFLTHAELVKIMEWKLTKGKFRPRLQQLIGSNNEEAVQSSSSKAFSLLPDVQAAIKELCKLKGVGSATASAVLVAGAPDKVAFMADEAVESIAELRPVEYTDKHYALYLQKMLWKTSELNKVDAQQDWTPHRVEQCLWTWTVANQIQPSLLQGVSLKDATNQKPEKRKTADEKPSKRKKTE”, the “soluble on expression in E. coli” value was “not soluble”.

On to “MSLFYYIVDDDEVFRSMLSQIIEDGDLGEVIGESEDGAFVEAEQLNYKKVDILFIDLLMPMRDGIETVRHIASSFTGKIIMISQVESKQLIGEAYTLGVEYYITKPLNKIEVVSVVRKVIERIRLERSIYDIQKSLNNVFQWEKPQMRSETVQEEKKISDSGRFLLAELGIAGENGSKDLLSMLEYLYGQEKAQTFEFGFPALKDIFHQITLKKLGEIASDADIEKEKKASEQRVRRAIYQSLNHLASLGLTDFSNPKFESYAPKFFDFTVVRKRMTEMTKDGVATSGHIRINTKKFIQVLYFEAKRLMEIEEGHHHHHH”, for which the “soluble on expression in E. coli” value is reported as “soluble”.

Turning to “MSLGDVVMNERELILAIETSCDETSAAVIENGTTILSNVVSSQIDSHKRFGGVVPEIASRHHVEQITVIVEEAMHEAGVDFADLAAVAVTEGPGLVGALLIGVNAAKAIAFAHQLPLIGVHHIAGHIYANRLLKELEFPLLALVVSGGHTELIYMENHGEFEVIGETRDDAVGEAYDKVARTLGLPYPGGPHIDRLAVNGEDTLQFPRAWLEPDSFDFSFSGLKSAVINTLHNAKQRGENVQAEDVAASFQASVIDVLVTKTKKAAEEYKVRQVLLAGGVAANKGLRTALEEAFFKEPIDLVIPPLSLCTDNAAMIGAAASIKFKQQTFAGMDLNGQPSLELENDEGHHHHHH”, the “soluble on expression in E. coli” value is reported as “soluble”.

With “MSLGEKHHMVLNRDQGITTRFSPQQKRLQLSSPKPYLLFFFTASCGACKEAIPYLNAIEEQWGERFEVIGVLGGSRGIKSDLEFLKRHSIRFKVLSDPSSSDYLSRAVGGVMGVPLFFFFDETGAPKEHFLGLVPQRVLEEEVRSLLEGHHHHHH”, the “soluble on expression in E. coli” value is “soluble”.

As for “MSLGELFAVFNEKLTIPEQEALMFLYAYMPTGDVTDYTGDYYLENVRLSDQARREMPWGKEIPDDVFRHFVLPIRVNNENLDDSRRVFYNELKDRVKNLSLHDAVLEVNHWCHEKVIYTPSDARTSAPLASVKTAYGRCGEESTFTVAALRSVGIPARQVYTPRWAHTDDNHAWVEAWVDGKWYFFGACEPEPVLNLGWFNAPASRGMLMHTKVFGRYTGQEEIMYETPNYTEINVIDNYAPTAKGSVLVTDAEGQPVADATVEFKVYNYAEFYTVATKHTDRSGHASLTAGKGDMLVWASKDGRFGYSKLSFGKDNELKITLDKNASETYSLPLDIVPPAEGEGHHHHHH”, the “soluble on expression in E. coli” value was “not soluble”.

As for “MSLGETTNLTFLRTDGQNIVTGTGEIFHIRGVTLTNNFWGNWVNGESEKLQSQGMDPIIRPLVQDAWVLTDDDFERIKDLGCNTVLYDINYQLFAEDNPNREENLKKLKEHIRRFSSMDIYTAVMLMAPPGLDSINDAYEKYKHGSERIKSVFEDDTYYEQWVEMWKYLAEELKDFKGVAGYGLINQPRAPSESEGGIGIFRERLNNVCREIRKIDKNHIIFVPEYNSREANPGESYWNEKTNSYVIDNGEQGIIWERGLVKVDSSNVVYLFHFFEPYNFVNDGVGDFDAESLEAQVRKRYEWAKNVGRAPLLTEYGISRVNSVDKRVQWLETVHDIFDKYGISASYFQYKNAVGAFINVKTGFNALYGEYVSWDSEIGLNPFYFVNEHVATSAKENHFDEALKEYYLKGKNLKKISILDNQPILETLQNFWKEGHHHHHH”, the “soluble on expression in E. coli” value is reported as “soluble”.

In the case of “MSLGEVAPTLAAYDLQGEAVALEQWEGKLVYLNFWSVNCGGCLAEMATLNQLSQEYQDQAVVVAINTDPEQVEIAPVLAQHNINYPVIRDQLGITQERYQVIGTPTSFLIDRNGKVIEWHQGVRNEQELTALFKQKVSEKEGHHHHHH”, the “soluble on expression in E. coli” value is recorded as “not soluble”.

In the case of “MSLGFSTYRATNYNEGTAYGNTPVILTLKSTSKSNLKTAVEELQKLNASYSNTTTLAGDDRIQTAIEISKEYYNNDGEKQDHSADVKENVKNVVLVGANALVDGLVAAPLAAEKDAPLLLTSKDKLDSSVKSEIKRVLDLKTSTEVTGKTVYLAGGVNSVSKEVVTELESMGLKVERFSGDDRYETSLKIADEIGLDNDKAYVVGGTGLADAMSIASVASTKLDGNGVVDKTNGHATPIVVVDGKADRISDDLDSFLGSADVDIIGGFASVSEKMEEAISDATGKGVTRVKGDDRQDTNSEVIKTYYANDTEGHHHHHH”, the “soluble on expression in E. coli” value is listed as “soluble”.

In the case of “MSLGGQEKEHLTMRAEEWHLVSGAVSMRGRRPTDEDTMVVVAAIHSHRNIRIQALFDGHGGPNVAQFAANRLQSLFARQKGYSRRDLEKICHALDEELKKNNVRRGGSTGVIMVIEKVEKPEKVIVRGRQILKDPGLTPLKEHYRKQAGPAEEITLGTSETPFRLHVANVGDSRAMLVLEDEYYEMTKDHKPEDPEEKSRILRAGASVTDSEGTSVPRIDGSLALSRSFGDFSLKQGSGSTPDAVISTPDVRQFYAGYNDLLVLFCDGVTEPVASSWPQVAAYTREIFVQTGDVVKTAVALAEQAYSAGSQDNLSAVVTRLRPDPAEEGHHHHHH”, the “soluble on expression in E. coli” value is “soluble”.

Take “MSLGGSVEVLHWWTAGGEAKAVSALKDQFEAEGGTWIDSPVAGGGGDAAMTALRSRVIAGNPPSAVQLKGPSIQEWAAEGVVANLDDIAKAENWDKLLPALLKSVVTYEGHYVAVPVNIHRVDWLWANPAVLAKAGVAVPTTWDEFNTAAEALKAKGIIPLAHGGQPWQDATLFEVVVLGLGGPAFYHKALVELDDAALRGDTMVKVFDQMRRLRGFVDPNFSGRDWNLATAMVINGEAGFQIMGDWAKGEFLGAGKVPGKDFLCIAAPGKGFLLNSDSLVMFDVKGADKIEGQKTLARLVLGETFQRTFNTLKGSIPARQGMDLADFDACAQKSQADLTKAIAADSLEPSMAHEMAVPRSVRGAIMDVVTAHFNSSESSAEAVAHLADSIAQAREGHHHHHH”: the “soluble on expression in E. coli” value was “soluble”.

On to “MSLGILRQAHWRNPSLERSPALILAHGCFEDVHGKVAHGLVRGTDRFDIVAVIDPDCAGHDAGTLLDGRPRNIPVFASIEAALAQGRRRPAVAIVGMATHGGRFTETLRAALFEAAAAGLSLVNGLHDLAGDDPEIAAETARHGASILDLRRPRAVAELHFWTGQIHGVAAPRIAVLGTDCALGKRTTARLLTQALNADGIRTEMIYTGQTGWMQGGRYGFILDALPNDFVSGELEHAILTCYREVRPDLIILEGQSALRNPSGPCGAELLLSGAAAGVILQHAPGRRHYDGFEGSRFRIPPVEDEIRLIEHYGVPVLGVSLNGRDSGPEGLREAQRRLARTLDVPVVCPLEDGVTDLLPPLRALLEREEVAEGHHHHHH”, for which the “soluble on expression in E. coli” value is reported as “soluble”.

For “MSLGKALEIDLGNRLQALDIDGPTREILRECRPIIEKIIDEAVLDSYNKILAYPEVRDAYAGMKIEDACQAQRTHWIDDVFAGTFAEEQIRNGVEIFSKRQRQGLSLRWYFCFYSNILRCMIAAVYPQYRRDKEKLQRVIGALTRTVMFELEIASTAYMHSAQEQVAVALNDAAGQFEREGHHHHHH”, the “soluble on expression in E. coli” value is “soluble”.

For the sequence “MSLGKRLKEARQKAGYTQKEAAEKLNIGNNNLSNYERDYRDPDTDTLLKLSNLYNVSTDYLLGKDEVSKKNETDLLNKTINEAIQELKDEDTLLFMNDGEFDEETARLVKKALKNGIKFIDELKKKE”, the “soluble on expression in E. coli” value is listed as “not soluble”.

With “MSLGLTTKPLSLKVNAALFDVDGTIIISQPAIAAFWRDFGKDKPYFDAEHVIQVSHGWRTFDAIAKFAPDFANEEYVNKLEAEIPVKYGEKSIEVPGAVKLCNALNALPKEKWAVATSGTRDMAQKWFEHLGIRRPKYFITANDVKQGKPHPEPYLKGRNGLGYPINEQDPSKSKVVVFEDAPAGIAAGKAAGCKIIGIATTFDLDFLKEKGCDIIVKNHESIRVGGYNAETDEVEFIFDDYLYAKDDLLKWEGHHHHHH”, the “soluble on expression in E. coli” value is listed as “soluble”.

Take “MSLGMAAWDRNSINPLQAYVYKTSKLPFYDENLHNLAEKIAPHCLLAHLRGVSYHDKQVVTDQNVHPFLYPVTSIALAHNGMLHNFETMRYDLLKYVKTEYRKYIKGTTDSEWIYAVFLSQLENPKGHFDASEIINAVIATLKILKTVRQQNNIVINSPVNLFLTNGDFIAATRFCLDYGWKPKDATQSTHFTYHSLWYTYGERYGFYENEYKMKGGTINSSIIIASEPLTENTTTWLEVPEYTLIFANQVDGEIKITSQDINEGHHHHHH”: the “soluble on expression in E. coli” value is listed as “not soluble”.

Consider “MSLGPVENHSLPRTAAFFDLDKTVIAKSSTLTFSKSFYQGGLINRRAVLRTAYAQFVFLAGGADHDQMERMREYLSALCRGWNVRQVKEIVAETLHDLIDPIIYDEAASLIEEHHTAGRDVVIVSTSGAEVVEPIGELLGADRVVATRMIVGDDGCFTGEVEYYAYGPTKAEAIKELAASEGYDLARCYAYSDSATDLPMLESVGHPHAVNPDRALRREAIARQWPILDFHRPVRLKQRLPALSVPPREGHHHHHH”, for which the “soluble on expression in E. coli” value was “soluble”.

As for “MSLGQGSILTKANTINNMEYVTEVFGAIPTEEQVSYQKEELTAFIHFGVNTFTGREWGDGTENPEIFNPTNLDADQWVKTLAEAGFGRVILTAKHHDGFCLWDSAYTKHDVASSPWKNGKGDVVKEVLEACAKYNIKFGVYLSPWDQNSEHYGDGNGGDYNEFYMNQLRELLTNYGPIAEVWMDGAKGSNVKQEYNFEEWFALIKKLQPECLIFSPQGPDIRWIGNEKGYAGEPCWSTIDIEKMKERENPTYLNNGEEGGPNWIVGESDVSIRPGWFYHESQDNEVKSLEKMMDIYFKSIGRNSVLLLNVPPNKEGKLHENDVNRLKKFGETIKELFNDDLALNKEVIVDGFANNDETYGANKIVDGDYDTYWAPDNSSKTGTIEIDLGGSKEFDVISLQEYIPLGQRVSSFNVEVLQGENWNKVYEGKTIGYKRLVRIAPTKGEKIRINITGSLEVPLINNVGVYKQPISIEEGHHHHHH”, the “soluble on expression in E. coli” value was “soluble”.

For the sequence “MSLGSGHIRAAEALQKFVVQKYPKSKTLIVDTFKYINPLIHTVVVDGYLNIVKYVPEIYGGLYRMSEHIKNIDRMSRGFSNLLTPKIHRLIQSFKPSIIVCTHPFPLQMIAHLKKHYNLDVPSIAIVTDFVNHPFWFQNNIEAYIVAHDYIKRDMIECGISEDRIFTYGLPVAPEFLKLEHHHHHH”, the “soluble on expression in E. coli” value is “not soluble”.

For “MSLGYRVGNSDSTSLLSAFAPPERAKKKSKEKRPLQAARFLSLLYPKTDPHSAVQDPSLVHEEHQTRLAYLQDRLCSTGDILKNTRTLETIAAYKQAVKEFVQYAIKHNYTTESKSSIRIDRGTGMPDTVIFTKIKVIDQKLASFVRELMSHQVDQLTVLQKTEEIYGMLVDLLIEGHHHHHH”, the “soluble on expression in E. coli” value is on record as “soluble”.
